assay: soluble on expression in E. coli; label from the status in PepcDB or PDB records

Row | Sequence | soluble on expression in E. coli
1 | MGSDKIHHHHHHMPVFYPAVQGSLPMGGQESLPLRRLKSFQPLGRLTDDQLVLLASRAERRTHGPGQRVMERGVRDGLDYFLISGAVELQSVDGRKSTIEAETDKALNPVARLQPRMYDVTAVKPCEFLVIEQEVLNQMLRAAPISQVEMDSSDHDEDQSEEHHLLMEFYSELRSNQVQLPSVPDVAWKVRRVVDREDSSATEVASAVSADPAMAAKLVRSCNSPLYRGFSDVRNVREAVVRLGMRTTRQLVTVFAMREVFKTRRAPLQKEMEQLWRHSREVAALCWVLADHATRIDPEEALLAGLLHDIGVVPVLVQAEHHVNLFADDRNLHHAIDELRADVGCAVLENWAFPKAFVEAVRHAEDWHHECRETAPQLVDVVIVAQLHSMIGSSQNEGLPAFDQVPAWRRLGELELNASRSLQLLSEARERVDEVQKLLSIR | not soluble
2 | MGSDKIHHHHHHMNPSPLPYFLGCPSWSENAWRDYLYPADANSNQMLGFYSQVFNAVEGNTTFYARPAPGTIARWAQLMPEHFRFTAKFPRDVSHEGDLRDQLEPAFDFTRLMAPLGRRVSPYWLQLPAQFGPARLGELCHFLDQIAVPVAVEVRNQAFFAKGEEERLLNRLLHERGVERICLDPRALFSCTSRDPAVLHAQSKKPKVPPRPAAFSQHPQVRFIGHPELEANHTFLSPWVEKVAAWIEEGRNPYIFLHTSDNRLAAALAQRFHQRLMARLPGLAPLPELPRAPEVEQLGLL | not soluble
3 | MGSDKIHHHHHHMNTLTLEYIKSILPPRPDNSHKMTFGHVLNIAGSLHYRGAAYLSSLSALRVGAGYVTLASSPSVCDSVSALTPNIVTFALRTLSPLSVHSLQRTANLHLKDAQIVDVQTLSPQAVLQLRDKLTQASAISIGSGLSIGQSTDQCIDITAINTELTVDVDVTLCTEMSAEISTDLNSDLNSDLNSDLRSELPICNVIKDNQPHSNELIPPQGNHGFFYALLNEIQTCTKPVIFDADALNFISHLLNPPVPFGTTTVTLPNKSIITPHPKELARLLNMDVATLQTQRMHFARLAAKQLNTIVVLKGKNTVITDGNDVFINPTGNSALAKAGTGDVLTGMISGFCAQGVSPINAACLGVYLHGLAGNIAAEDLSQYGMLASDLLSYIPKAILKVLAI | not soluble
4 | MGSDKIHHHHHHFACKEETDLYFNGDITVIKSFDNDTLLSPVKVELEDIYDGSVLAYDSLLFFTSHKYSDCWMYVFSVNSGKHIASLCPKGQGPNDYLSCKNSQQFIRENGELKLWVRDNAKSARLLNITKSIETGATVCDAIIPMDWNKYFVYPATTLFFLKDGYILGQNQCEEQYSKGKEYIPRKFYLYKDSLGNKVKEYKLFNRPVILKDDKYDVLSGMFYANHSYIHPDQTKVAIAMQRVAQITILDVKSGKQVGYRMDDTLDFSDIEQNLECIRYYYTSAAVNSRYIFALYIDQAEMGGKYPFKSKTVHVFNWEGRPVYKIQLDKEISWITLDPQNNRLYAQGEDDSIWAYDVSWLSK | not soluble
5 | GMAEPKFTSFTTADFINDVDMELFIDAVEKTAPVWVKEMKSRGLLKFSMNRVWNKGEVFRVVMTYEYKDRASFEANIAYLEDTFGKNPVFLQLVTTAKFTTSRCLVVMEV | soluble
6 | MSLQSKTAKLPDNDRNRPLIQTFNDAQQKVWFDDALLHEDPSQCCNPEFWQQNGKVLGSATGRGTTWFVQLQQTQGALRHYRRGGLFGKLVADSYWFTGWEKTRSYQEFMLLNHLRDAGVNVPRPIAARVQKHGLLYKADLLSEKVPNARDLVSILQESPISDELYRKIGREIRKMHDAQVNHTDLNIHNILIDDQEKVWIIDFDKCYVQIGDSWKQGNLKRLKRSFEKEVCKRGINWSLEAFAIISSYKHEEEGHHHHHH | soluble
7 | GMSDQRYNLRGVSASKEDVHNAIKNIDKGIFPKAFCKIIPDILGGDPEYCNIMHADGAGTKSSLAYMYWKETGDLSVWKGIAQDALIMNIDDLLCVGAVDNILVSSTIGRNKLLVPGEVISAIINGTDELLAELREMGVGCYATGGETADVGDLVRTIIVDSTVTCRMKRSDVIDNKNIQGGDVIVGLASSGQATYEKEYNGGMGSNGLTSARHDVFSKYLAKKYPESYDAAVPKELVYSGGLKLTDKIEELGIDAGKMVLSPTRTYAPVIKVLLDKLRSQIHGMVHCSGGAQTKVMHFVENKRVTKDNLFPIPPLFRTIQEQSGTDWSEMYKVFNMGHRMEIYIAPEHAEEVIGISKSFGIDAQIVGFVEEADKNELIIESEKGRFTY | soluble
8 | MRGFSGQPLSDDDNYRIEKTQRNTIPERLHFSRERNMPIASIFGTRGYFVFSSEQSYDKFKQTNFNISTLDADGVGVPLFHIVQSYNVIGKITRSSPDFYIYKYVLQGVQDPPLYSDCKVICQDKVFRLCKILYCEIYAHQGFFETKYDFFYPSKTQPVKKYQIIKQSNMRDLYSTLDGMRFRWHVKFYSDHFRLMFLDEDRLNYSNSNQKERQKPDQGKSKAPDFVIGHYTRTFSDILPRSTSKCSNLIIGEHSKPDSLGITTVPDLTQEFACQGALIHYLLHIERERK | soluble
9 | MGSDKIHHHHHHDLDGAITTPAAVELALNGIYYSLPGNGFNVIFPTVSGSFKAGTMWRQEIVSAGNAVYYSERMLPTLSFSDATEWDADYAVIKNANFLETACNRMSDGEFSGNRRAEVLGEIAYLRALAYFNILVRYCEFWDMNSEYGVVMRNEAPSVSNALKARSSVADSYQYILDQLEIAIEKAPDWKKLSQASKEAAKALKARVLLYAGKYTEAVAAVNDAIDTNSPLPEANYGDVFDKFSTTKEILFARVFDQKDATNTSTRQQCYGNSPTKKQGYWGPTNEYVELVGDDPRADAIFSKVDSLMDSRSSAVAYNLKSVKKLLNDANDMPVIFSRVSELYLIKAEALYRSGASISEAYAPIRKLRERAGAEIILPANNEELETAIFNEWMLELSFENWHEWFAMIRFAGYTEKPDFTRLLALNKTLREALEKEYEKSEAQGDNYYQRIIDRRIDAIPSSEISSNLECKQNPGY | not soluble
10 | MGSDKIHHHHHHMMIMLDPFSEKAKELLKGFGSINDFMDAIPKIVSVDDVIERIRVVKNEKLIDKFLDQDNVMDLAQFYALLGALSYSPYGIELELVKKANLIIYSERLKRKKEIKPEEISIDVSTAIEFPTEDVRKIERVYGKIPEYTMKISDFLDLVPDEKLANYYIYEGRVYLKREDLIRIWSKAFERNVERGVNMLYEIRDELPEFYRKVLGEIQAFAEEEFGRKFGEIQGGKLRPEFFPPCIKNALKGVPQGIRNYAITVLLTSFLSYARICPNPPRRNVRVKDCIKDIRVITEEILPIIIEAANRCSPPLFEDQPNEIKNIWYHLGFGYTANPSLEDSGNSTWYFPPNCEKIRANAPQLCTPDKHCKYIRNPLTYYLRRLYLEGRRNAPKRGNKRGKKELLHQ | not soluble
11 | MDYNVKDFGALGDGVSDDRASIQAAIDAAYAAGGGTVYLPAGEYRVSAAGEPGDGCLMLKDGVYLAGAGMGETVIKLIDGSDQKITGMVRSAYGEETSNFGMRDLTLDGNRDNTSGKVDGWFNGYIPGGDGADRDVTIERVEVREMSGYGFDPHEQTINLTIRDSVAHDNGLDGFVADYLVDSVFENNVAYANDRHGFNVVTSTHDFVMTNNVAYGNGSSGLVVQRGLEDLALPSNILIDGGAYYDNAREGVLLKMTSDITLQNADIHGNGSSGVRVYGAQDVQILDNQIHDNAQAAAVPEVLLQSFDDTAGASGTYYTTLNTRIEGNTISGSANSTYGIQERNDGTDYSSLIDNDIAGVQQPIQLYGPHSTVSGEP | soluble
12 | MHAITNSGWVEVITGSMFSGKTEELLRRLRRAEIAGQDVAAVTPAVDDRYGEATLGSHAGRSWAATVVEPTAEGVASIPTLLNGEQVVAIDEANFFPAELVDVCQELAADGRRVVLSGTDQTFRGEPFEPVPQLMAIAEYVDKMRAICMQCGEPATRNQRLIEGEPAHYDDPTVMVGAEETYEARCRNCHVVRRELEHHHHHH | not soluble
13 | NNNRAPKEPTDPVTLIFTDIESSTALWAAHPDLMPDAVAAHHRMVRSLIGRYKCYEVKTVGDSFMIASKSPFAAVQLAQELQLCFLHHDWGTNALDDSYREFEEQRAEGECEYTPPTAHMDPEVYSRLWNGLRVRVGIHTGLCDIRHDEVTKGYDYYGRTPNMAARTESVANGGQVLMTHAAYMSLSAEDRKQIDVTALGDVALRGVSDPVKMYQLNTVPSRNFAALRLDREYFD | soluble
14 | MGSDKIHHHHHHASPKKVAPEKKGVETINRATAEAHIGFLACDELEGREAGWKGGRIAGNYIISCLKQMGIKPLDGDYIQPFDVYHAERQVKGKRWQVHPDSIAELKKVVYQKLALRNILGKIEGKNPNEIVIIGAHYDHIGYDPMLEGDQIYNGADDNASGVQAVLQVARAFLATGEQPERTVIFAFWDGEEKGLLGSRYFAMNYPDIKKVKGYLNYDMIGRNNREDQPDYFVYFYTAAHQAFGDWLKKDIEDYRLQLSPDYRAWDNPVGGSDNGTFAKLGIPIIWYHTDAHPDYHLPGDETQKINWLKIVDITKASFLAMWKLANEKKY | not soluble
15 | MSLAARLIRSSRSNTFGIITDYVSTTPYSVDIVRGIQDWANANGKTILIANTGGSSEREVEIWKMFQSHRIDGVLYVTMYRRIVDPESGDVSIPTVMINCRPQTRELLPSIEPDDYQGARDLTRYLLERGHRRIGYIRLNPILLGAELRLDAFRRTTSEFGLTENDLSISLGMDGPVGAENNYVFAAATEMLKQDDRPTAIMSGNDEMAIQIYIAAMALGLRIPQDVSIVGFDDFRTVTMALKPELTTAALPYYDLGREGAKWLNDLIAGEKIYPGSRVVSCKLVERSSAAFGEGHHHHHH | soluble
16 | MKEKIPFYNEKEFNEMMKKTKKGTFSGWYIINPENKSVEFSGNFNRQFKLNKPVIPVNTEYVTRKEFNEYKDSNDQRLTKIENKVDKLEVKVDKLEEKVDKLEAKVDKLEEKVDKLEAKVDKLEEKVDKLEAKVDSGFEMLAKILAAINKRLDSIEGRLDKIEPPKLEHHHHHH | not soluble
17 | NENFRWKTAVNMSMNRNKVVSLHKDYKSFRYGSEGFSMAYDMWVKEGGKLGDIYGNGFERDENGKIKLNETGNPIKVTGNNTLLGNANPDALLGWSNTFTYKGFTLYFLIDARIGGDVMSLTQAHLDAMGVSKESGESRDRGYVEYEGIQFKDVPNFYGTVGGRNGISEYYMYDATNVRLRELTLGYSFPETLLAKTKFIKGLDLTLVARNLFFLYKDAPFDPDATLSVGNTLQGVDVFGMPTTRNIGFNVKFTF | not soluble
18 | MCPVENKWLKVGQKGAGPGARSSHAMTVVGNKVYCFGGELKPTIHIDNDLYVFDLETQEWSIAPATGEAPFPCFGVSMVTIGSTIYVYGGRDDKRRYNGLHSYDTETNEWKLLAPVEEGLPGRSYHSMAGDDRKVYVFGGVTAKGRVNTLHAYDVVDQKWVEYPAAGEACKGRGAPGLVVVEGRIWVLFGFDGNELGDIHCFDLASEQWKAVETTGDVPAARSVFPAVSYGKYIVIYGGEEEPHELMHMGAGKMSGEVYQLDTETLVWERIVCGNEEEKPSQRGWCAFTKAVKDGEEGLLVHGGNSPTNERLDDLVFWGFSHLNVN | soluble
19 | MGSDKIHHHHHHMQLHLTDDRFNTDPYWTERIKSTFACPPKEVVSMFDQNGYDLTKLEQLYAVANGAETTKHRNSSHITLRQDWFTADDTEYGPHINHAYMFERKGYSGDALAQLEAWSYYRPHFHKLIAMRPKWGLDFSIDYCDREGNVFELLHWEYDGFDHNEVADKKEKMDEFLVNQDWDERARTMLERKNEWHKLGFFEQSEWKTEFFGIEKERFKMVLWK | not soluble
20 | MKVVIASDHGGMNIRKELVSLLEELNIEYIDLGCECEAGSVDYPDFAFPAAEMVANGEVDRGILVCGTGIGMSIAANKVNGIRCALVHDTFSARATREHNDTNMLAMGERVIGAGLARDIAKIWLTTEFEGGRHENRVGKIKTYEAK | not soluble

— the DeepSol protein solubility set
